From paper PMC8892339 (2022)

Legend:
Assay in all cases: SPR, 37 °C
[1] = biological target: CD3ζ ITAM3 NC peptide ITAM3 (Homo sapiens, UniProt P20963, both ITAM tyrosines phosphorylated peptide; tSH2-GFP fusion)
[2] = biological target: CD3ζ ITAM3 C peptide ITAM3 (Homo sapiens, UniProt P20963, C-terminal ITAM tyrosine monophosphorylated peptide; tSH2-GFP fusion)
[3] = biological target: CD3ζ ITAM3 N peptide ITAM3 (Homo sapiens, UniProt P20963, N-terminal ITAM tyrosine monophosphorylated peptide; tSH2-GFP fusion)
Sequence of CD3ζ ITAM3 N peptide ITAM3 (P20963 128-162): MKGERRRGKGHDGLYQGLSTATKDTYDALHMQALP

Sequence of CD3ζ ITAM3 C peptide ITAM3 (P20963 128-162): as above
Sequence of CD3ζ ITAM3 NC peptide ITAM3 (P20963 128-162): as above

Kd [1]: 0.0962 µM
Kd [2]: 7.52 µM
Kd [3]: 20.7 µM
B1: ZAP70 tandem SH2 (protein)
chain: MPDPAAHLPFFYGSISRAEAEEHLKLAGMADGLFLLRQCLRSLGGYVLSLVHDVRFHHFPIERQLNGTYAIAGGKAHCGPAELCEFYSRDPDGLPCNLRKPCNRPSGLEPQPGVFDCLRDAMVRDYVRQTWKLEGEALEQAIISQAPQVEKLIATTAHERMPWYHSSLTREEAERKLYSGAQTDGKFLLRPRKEQGTYALSLIYGKTVYHYLISQDKAGKYCIPEGTKFDTLWQLVEYLKLKADGLIYCLKEACPNSSA
